Test system: MS2 coat protein
Experiment: apparent KD of MS2 coat protein; designed switch direction (-1 OFF switch, 1 ON switch): -1; higher = weaker reporter binding
In short: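 Designed RNA switches with common flanks were transcribed on Illumina chips by stalled E. coli RNA polymerase and titrated with SNAP-549-labelled MS2 coat protein, from 0.7 or 1.5 nM doubling to 3 µM, in Tris-HCl pH 7.5 buffer with KCl, MgCl2, BSA, DTT, tRNA and Tween-20. Steps lasted 0.8–1.5 h (lowest) to 10–20 min (highest). Titrations ran without input, with 200 uM small-molecule ligand, or with an oligonucleotide input. Normalised cluster fluorescence was curve-fitted, and apparent KD is the per-design median over clusters.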

[1] = Eterna round: R95, input ligand: FMN 200 uM
[2] = Eterna round: R95, input ligand: microRNA oligo, concentration not stated
[3] = Eterna round: R95, input ligand: none
[4] = input ligand: microRNA oligo, concentration not stated

Row | Sequence | apparent KD of MS2 coat protein [2] | apparent KD of MS2 coat protein (input ligand: FMN 200 uM) | apparent KD of MS2 coat protein (input ligand: none) | also measured
1 | CUGAGGUAGCGGUCCUAUGACAUGAGGAUCACCCAUGUACCUUGCUACAAGCUUUUUGCUCGUCUUAUGAUUCUCGG [JL Atriat mod 8] (puzzle: Sensor v3, turn-off variant 1) | 123 nM |  |  | apparent KD of MS2 coat protein [1]: 58.1 nM; apparent KD of MS2 coat protein [3]: 70.2 nM
2 | CUGAUGUCAGGAUAUCGGUGGCUCACUUGUGUGUGCCAGUUCGAGAAGGGACAUGAGGAUCACCCAUGUUUUUA [Exclusion 4 (Mod2 of #36 by Marzena11)] (Eterna round: R97, puzzle: Exclusion 4) |  | 486 nM | 75.2 nM | 
3 | CUGAUGUGAGGAUAUGUGAUCUGCCUUCUAUAUAGAUGAUUACAGAAGGCACAUGAGGAUCACCCAUGUAGAUC [Ex4 - 3 - 25] (puzzle: Exclusion 4) | 51.8 nM |  |  | 
4 | CUGAUGUUAGGAUAUCAGGCGCCCGCCACUAGCAGGGCGCAUGAGAAGGGACAUGAGGAUCACCCAUGUAGUAA [Anbionxe] (puzzle: Exclusion 4) | 27.3 nM |  |  | 
5 | CUGAUUCUAGUAAGGAUAUCGGCGUGCACAGCAGCCGAGAAGGUACAUGAGGAUCACCCAUGUUGCUUCAACUU [Eternabot (Original) Solution 43] (Eterna round: R97, puzzle: Brourd's mod of Exclusion 4) |  | 69.5 nM | 31.2 nM | 
6 | CUGCUCCGUGUAGGAUAUCGCCGCACCACCCGGCGAGAAGGACAUGAGGAUCACCCAUGUAUGUUAUUAUCACGUGUGGCGCGC [Design 40] (Eterna round: R96, puzzle: Exclusion NG 1) |  | 17.6 nM | 15 nM | apparent KD of MS2 coat protein [4]: 11.7 nM
7 | CUGCUCCGUGUAGGAUAUGCAUACCACCACUAUGCAGAAGGACAUGAGGAUCACCCAUGUAUGUUAUUAUCACGUGAAGCGUCC [Design 19] (Eterna round: R96, puzzle: Exclusion NG 1) |  | 27.8 nM | 23.7 nM | apparent KD of MS2 coat protein [4]: 18.1 nM
8 | CUGCUCCGUGUAGGAUAUGCAUACUCCCACUAUGCAGAAGGACAUGAGGAUCACCCAUGUAUGUUAUUAUCACGUGUAGCGUCC [Design 17] (Eterna round: R96, puzzle: Exclusion NG 1) |  | 21.1 nM | 21.4 nM | apparent KD of MS2 coat protein [4]: 14.2 nM
9 | CUGCUGGAGCUUUGCUUUGGUCGUACAUGAGGAUCACCCAUGUAGGAUAUGGUAAAAUUUGCUUGCUAGAAGGAUAGAGUGGUC [salish99_ExNG3_r04_612] (Eterna round: R96, puzzle: Exclusion NG 3) |  | 88.1 nM | 42.4 nM | apparent KD of MS2 coat protein [4]: 34.3 nM
10 | CUGCUUUUGGUGAGGAUAUGCGGUAGCUGGGUACCGCAGAAGGCACAUGAGGAUCACCCAUGUGAUCUGAAAGC [Eternabot (L1) Solution 5] (Eterna round: R97, puzzle: Brourd's mod of Exclusion 4) |  | 687 nM | 61.2 nM | 
11 | CUGGUCCGAGGAUAUAUGAUGUGAAACAUGAGGAUCACCCAUGUAAUAUUAUGGAAGAAAAUAGAAGGCGGACUAG [Mat - Exclusion 5 - JL mod - D38] (puzzle: Exclusion 5) | 64.3 nM |  |  | apparent KD of MS2 coat protein [1]: 37.2 nM; apparent KD of MS2 coat protein [3]: 71.5 nM
12 | CUGGUCCGAGGAUAUAUUAAGUGAUACAUGAGGAUCACCCAUGUAAUUUAAUGGAAGUAAAUAGAAGGCGGACUAG [Mat - Exclusion 5 - JL mod - D50] (puzzle: Exclusion 5) | 53 nM |  |  | apparent KD of MS2 coat protein [1]: 79.8 nM; apparent KD of MS2 coat protein [3]: 80.5 nM
13 | CUGGUCCGAGGAUAUAUUAUGUGAAACAUGAGGAUCACCCAUGUAAUAUGAUGGAUGUAAAUAGAAGGCGGGCUAG [Mat - Exclusion 5 - JL mod - D26] (puzzle: Exclusion 5) | 23.2 nM |  |  | apparent KD of MS2 coat protein [1]: 30.8 nM; apparent KD of MS2 coat protein [3]: 24.3 nM
14 | CUGUAACGAGCGUGAGCCGACAUGAGGAUCACCCAUGUGCUCGUCUUAUAACGUACUGUCACGUUAGUGAUAGUGCG [Sensor v3, turn-off variant 1 (MOD of Eli's v1-13 v.2)] (puzzle: Sensor v3, turn-off variant 1) | 74.7 nM |  |  | apparent KD of MS2 coat protein [1]: 45.9 nM; apparent KD of MS2 coat protein [3]: 37.3 nM
15 | CUGUACUGAGGAUAUACAUGAGGAUCACCCAUGUGAUUUGGUGCACGCGUACGUGUACGUAGAAGGCAGUACAG [Mat - Exclusion 3 - Eli Mod - D39] (Eterna round: R97, puzzle: Exclusion 3) |  | 317 nM | 25.5 nM | 
16 | CUUAAUUGUCACAUGGGUGACAUGAGGAUCACCCAUGUCACAAGCUUUUUGUUCGUCUUAUAAUUAACCCAUGUGAC [Stov1/12-B3] (Eterna round: R97, puzzle: Sensor, turn-off variant 1) |  | 13.8 nM | 13.7 nM | 
17 | CUUAAUUGUGACAUGGGUGACAUGAGGAUCACCCAUGUCACAAGCUUUUUGCUCGUCUUAUAAUUAACCCAUGUCAC [Stov1/13-A3] (Eterna round: R97, puzzle: Sensor, turn-off variant 1) |  | 30 nM | 33.4 nM | 
18 | CUUAGUUGGUAAGGAUAUCCUACAUUAUUCUGACCCGUGCAAGCUACAUGAGGAUCACCCAUGUGGGAGAAGGUGCGUUAACGU [Design 7] (Eterna round: R96, puzzle: Exclusion NG 2) |  | 53.5 nM | 46 nM | apparent KD of MS2 coat protein [4]: 42.1 nM

Row | Sequence | apparent KD of MS2 coat protein [2] | apparent KD of MS2 coat protein (input ligand: FMN 200 uM) | apparent KD of MS2 coat protein (input ligand: none) | also measured
19 | CUUAUGUCAGGAUAUUAGUAGUAAAUAAAUAAAAUUAUUACUGAGAAGGGACAUGAGGAUCACCCAUGUUCCUC [Salish 062 v4] (Eterna round: R97, puzzle: Exclusion 4) |  | 96 nM | 23.9 nM | 
20 | CUUAUGUGAGGAUAUCAGUAGUGAUACGAUAGUAUUACUGCUGAGAAGGCACAUGAGGAUCACCCAUGUUCCUU [Exclusion 4 - Mod Omei Ex4 344 mod v.3] (puzzle: Exclusion 4) | 21.9 nM |  |  | 
21 | CUUCAGUGAGGAUAUGGCAUGCGCUGAUAAGCGCUCUCACGCCAGAAGGCACAUGAGGAUCACCCAUGUAAAAC [Eddionce] (puzzle: Exclusion 4) | 41.3 nM |  |  | 
22 | CUUCAUCCACCAGAGCUCACACUUAUACCUGCUCUGGUGACAUGAGGAUCACCCAUGUUUUUUGCCCGUCUUAUCUU [Sensor v3, turn-off variant 2 (MOD of Leso)] (puzzle: Sensor v3, turn-off variant 2) | 19.8 nM |  |  | apparent KD of MS2 coat protein [1]: 149 nM; apparent KD of MS2 coat protein [3]: 207 nM
23 | CUUGAGCAGGUAGGAUAUACGAUGUGUCGGCGAGUAGAAGGACCUGCGAUCCACUUGAGGAUCACCCAAGUUCGCAGGAGAACA [Mutated MS2 EX1.18] (Eterna round: R96, puzzle: Exclusion NG 1) |  | 103 nM | 33.4 nM | apparent KD of MS2 coat protein [4]: 22 nM
24 | CUUGUGUAAGGAUAUCGAGUAGAACGCUCGAGUUCUGAGCUCGAGAAGGUACAUGAGGAUCACCCAUGUUAAAA [Atusgete] (puzzle: Exclusion 4) | 42.2 nM |  |  | 
25 | CUUGUUUAUGUAGGAUAUGCCUGGCGUGCCUUUGCAGAAGGACAUGAGGAUCACCCAUGUAACAUGAGGCUCACCCUUGUCGCA [salish99_ExNG1_r04_115] (Eterna round: R96, puzzle: Exclusion NG 1) |  | 183 nM | 162 nM | apparent KD of MS2 coat protein [4]: 62 nM
26 | CUUGUUUAUGUAGGAUAUGCCUGGCGUGCCUUUGCAGAAGGACAUGAGGAUCACCCAUGUACAUGAGGAUCACCCAUGUUCGCA [salish99_ExNG1_r04_102] (Eterna round: R96, puzzle: Exclusion NG 1) |  | 836 nM | 825 nM | apparent KD of MS2 coat protein [4]: 455 nM
27 | CUUUAGCUAGGAUAUACAUGAGGAUCACCCAUGUUAGCGGCCAAUUGGACCGCGGGUUGUAGAAGGAGCAUUAA [Atantiza] (puzzle: Exclusion 3) | 29.8 nM |  |  | 
28 | CUUUCGUGAGGAUAUCAGUAGUAAAUAAAUAAAAUUACUACUGAGAAGGCACAUGAGGAUCACCCAUGUUCCUU [salish99_ex3_r3_095] (puzzle: Exclusion 4) | 12.9 nM |  |  | 
29 | CUUUUGUGAGGAUAUCAGUAGUAAAUAAAUAAAAUUACUUCUGAGAAGGCACAUGAGGAUCACCCAUGUUCCUC [salish99_ex3_r3_087] (puzzle: Exclusion 4) | 35.7 nM |  |  | 
30 | CUUUUGUGAGGAUAUCAGUAGUAAAUAAAUAAAUUUACUACUGAGAAGGCACAUGAGGAUCACCCAUGUUCCUC [salish99_ex3_r3_084] (puzzle: Exclusion 4) | 45.4 nM |  |  | 
31 | CUUUUGUGAGGAUAUCAGUAGUAAUACAAUAGUAUUACUACUGAGAAGGCACAUGAGGAUCACCCAUGUUCUUC [Ex4 344 Omei mod 2] (puzzle: Exclusion 4) | 23.2 nM |  |  | 
32 | CUUUUGUGAGGAUAUCAGUAGUAAUACAAUAGUAUUACUAUUGAGAAGGCACAUGAGGAUCACCCAUGUUCCUC [Ex4 344 Omei mod 6] (puzzle: Exclusion 4) | 38 nM |  |  | 
33 | CUUUUGUGAGGAUAUCAGUAGUAAUAUAAUAGUAUUACUACUGAGAAGGCACAUGAGGAUCACCCAUGUUCCUC [Ex4 344 Omei mod 8] (puzzle: Exclusion 4) | 27.9 nM |  |  | 
34 | CUUUUGUGAGGAUAUCAGUAGUAGAACAAUAGUACUACUACUGAGAAGGCACAUGAGGAUCACCCAUGUUUCUC [Fiskers Ex 4 Super stable 44 mod 4] (puzzle: Exclusion 4) | 58.7 nM |  |  | 
35 | CUUUUGUGAGGAUAUCAGUAGUUAAUAAAUAAAAUUACUACUGAGAAGGCACAUGAGGAUCACCCAUGUUCCUC [salish99_ex3_r3_075] (puzzle: Exclusion 4) | 39.4 nM |  |  | 
36 | CUUUUGUGAGGAUAUUAAUAGUAAGUAAAUAAAAUUAUUACUAAGAAGGCACAUGAGGAUCACCCAUGUUCCUC [EX4 #82] (Eterna round: R97, puzzle: Exclusion 4) |  | 102 nM | 63.4 nM | 
